# Reference: PMC3168688 (American journal of medical genetics. Part B, …, 2011)
# T1: c-Myc-tagged SLC9A9 C-terminal with both mutations (V512G and K534R) (rat, UniProt D4A7H1 494-644, V512G | K534R)
# T1 sequence (looked up): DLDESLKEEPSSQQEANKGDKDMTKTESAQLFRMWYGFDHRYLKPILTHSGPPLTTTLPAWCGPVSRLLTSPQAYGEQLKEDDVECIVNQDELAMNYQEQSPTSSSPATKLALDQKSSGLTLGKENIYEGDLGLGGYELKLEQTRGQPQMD
# B1: Flag-tagged calcineurin homologous protein (CHP) (natural protein, rat, UniProt P61023 1-195, looked up)
# chain: MGSRASTLLRDEELEEIKKETGFSHSQITRLYSRFTSLDKGENGTLSREDFQRIPELAINPLGDRIINAFFSEGEDQVNFRGFMRTLAHFRPIEDNEKSKDVNGPEPLNSRSNKLHFAFRLYDLDKDDKISRDELLQVLRMMVGVNISDEQLGSIADRTIQEADQDGDSAISFTEFVKVLEKVDVEQKMSIRFLH
# Target: T1, c-Myc-tagged SLC9A9 C-terminal with …
# Assay: co-IP
binder,measurement,value
B1,fold change of CHP co-precipitated against wild-type SLC9A9 C-terminal,~2 fold
